The record followed here is paper PMC5458251.

In the experiment the target is SEPT9_i1-YN (split-YFP chimera: septin 9 isoform 1 with EE tag, linker and N-terminal YFP fragment on its C-terminus) (human) (UniProt Q9UHD8). Put plainly: split reporter (BiFC, NanoBiT); split YFP (YN/YC) in live PC-3 cells, transient co-transfection with 10-fold more HIF-1α plasmid than SEPT9_i1 plasmid, confocal imaging 48 h after transfection; cells treated overnight with 250 μM CoCl2, 100 μM DBM, DBM with 1 μM 17-AAG or 150 μM FCF, or 0.01% DMSO.
UniProt Q9UHD8, sequence (Q9UHD8 whole entry, change not shown, the tested form may be a part, canonical isoform): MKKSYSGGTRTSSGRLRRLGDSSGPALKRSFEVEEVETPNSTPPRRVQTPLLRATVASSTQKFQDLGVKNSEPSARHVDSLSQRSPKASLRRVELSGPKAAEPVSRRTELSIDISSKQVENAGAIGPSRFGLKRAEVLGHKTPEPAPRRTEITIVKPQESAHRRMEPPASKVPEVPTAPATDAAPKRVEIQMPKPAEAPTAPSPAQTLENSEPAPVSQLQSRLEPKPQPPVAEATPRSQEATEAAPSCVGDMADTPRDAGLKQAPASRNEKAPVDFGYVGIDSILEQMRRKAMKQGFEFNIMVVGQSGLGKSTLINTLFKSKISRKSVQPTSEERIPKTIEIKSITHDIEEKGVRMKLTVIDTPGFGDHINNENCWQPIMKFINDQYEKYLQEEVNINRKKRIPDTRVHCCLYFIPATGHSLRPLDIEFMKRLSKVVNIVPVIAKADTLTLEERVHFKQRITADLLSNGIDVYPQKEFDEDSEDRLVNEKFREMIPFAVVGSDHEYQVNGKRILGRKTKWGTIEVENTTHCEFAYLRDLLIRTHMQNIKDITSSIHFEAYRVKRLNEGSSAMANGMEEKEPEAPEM

For the substance “YC-HIF-1α-DPM (YC chimera of double proline mutated HIF-1α) (from UniProt Q16665 1-826) (natural protein)”, the fold BiFC signal against YC-ΔHLH-HIF-1α with SEPT9 i1-YN was determined as 11 fold.
